Like-named read-outs stand apart in the source and are kept apart here.
Legend:
[1] = target: T1, Interferon receptors on Daudi cells (UniProt P17181); assay: cell-based or functional assay
T1 sequence (looked up) 1: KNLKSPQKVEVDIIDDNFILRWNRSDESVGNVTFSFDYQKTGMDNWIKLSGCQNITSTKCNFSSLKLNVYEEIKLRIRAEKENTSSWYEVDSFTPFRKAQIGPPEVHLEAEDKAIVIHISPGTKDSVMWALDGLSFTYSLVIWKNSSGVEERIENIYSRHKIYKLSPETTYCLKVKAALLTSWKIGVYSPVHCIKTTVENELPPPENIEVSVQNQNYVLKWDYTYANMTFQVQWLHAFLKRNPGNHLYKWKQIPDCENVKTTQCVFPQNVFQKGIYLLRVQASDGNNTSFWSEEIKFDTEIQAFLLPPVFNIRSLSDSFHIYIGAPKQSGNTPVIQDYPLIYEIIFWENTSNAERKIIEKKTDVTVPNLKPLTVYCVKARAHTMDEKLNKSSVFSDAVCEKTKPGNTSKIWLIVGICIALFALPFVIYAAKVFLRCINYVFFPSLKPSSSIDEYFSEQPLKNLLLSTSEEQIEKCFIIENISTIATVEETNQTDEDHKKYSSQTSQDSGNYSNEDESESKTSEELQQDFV
T1 sequence (looked up) 2: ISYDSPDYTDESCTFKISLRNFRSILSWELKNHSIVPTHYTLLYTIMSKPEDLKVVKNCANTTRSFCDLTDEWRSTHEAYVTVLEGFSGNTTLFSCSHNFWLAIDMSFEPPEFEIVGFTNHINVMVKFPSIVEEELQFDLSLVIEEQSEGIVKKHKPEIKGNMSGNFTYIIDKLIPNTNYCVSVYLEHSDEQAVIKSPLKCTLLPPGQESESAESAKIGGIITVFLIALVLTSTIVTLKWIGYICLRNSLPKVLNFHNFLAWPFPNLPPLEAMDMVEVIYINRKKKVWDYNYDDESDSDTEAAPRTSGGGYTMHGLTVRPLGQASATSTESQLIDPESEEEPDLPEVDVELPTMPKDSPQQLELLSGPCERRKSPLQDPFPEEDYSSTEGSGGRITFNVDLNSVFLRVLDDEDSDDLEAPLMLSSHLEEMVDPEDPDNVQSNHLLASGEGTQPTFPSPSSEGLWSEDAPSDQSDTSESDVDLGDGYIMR

[2] = target: T2, human OX40 expressed on CHO cells (human, UniProt P43489 29-277); assay: FACS on CHO cells transfected with human OX40
T2 construct: whole, on cells; also called hsOX40; CHO-hOX40
T2 sequence (looked up): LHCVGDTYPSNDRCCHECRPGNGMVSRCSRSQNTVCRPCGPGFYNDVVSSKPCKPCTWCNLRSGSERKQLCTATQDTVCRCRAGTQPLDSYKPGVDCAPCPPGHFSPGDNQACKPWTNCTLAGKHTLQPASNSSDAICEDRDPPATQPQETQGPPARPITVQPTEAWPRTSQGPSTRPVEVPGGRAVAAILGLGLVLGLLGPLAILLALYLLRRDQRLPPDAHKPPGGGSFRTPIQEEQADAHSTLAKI

[3] = target: T3, OX40 on reporter cells (Jurkat-OX40-NFκB-luciferase; HEK293-OX40-NFκB-Luc) (UniProt P43489 29-277); assay: cell-based or functional assay
T3 sequence (looked up): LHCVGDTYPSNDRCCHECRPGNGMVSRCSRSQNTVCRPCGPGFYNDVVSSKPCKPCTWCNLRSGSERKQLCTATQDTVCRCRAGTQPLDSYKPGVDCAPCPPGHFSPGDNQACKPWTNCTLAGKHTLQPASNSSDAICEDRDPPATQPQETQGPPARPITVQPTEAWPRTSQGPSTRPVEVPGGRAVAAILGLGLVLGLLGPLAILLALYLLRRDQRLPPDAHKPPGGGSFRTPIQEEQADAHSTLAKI

[4] = target: T3, OX40 on reporter cells …; assay: cell-based or functional assay; remark: listed apart in the source
[5] = target: T3, OX40 on reporter cells …; assay: cell-based or functional assay; remark: listed apart in the source
human OX40 protein [6] = target: T4, human OX40 protein (human, UniProt P43489 29-216, limits assumed); assay: ELISA, plate coated with human OX40 protein, goat-anti-human IgG HRP
T4 construct: also called TNFRSF4; CD134
T4 sequence (looked up): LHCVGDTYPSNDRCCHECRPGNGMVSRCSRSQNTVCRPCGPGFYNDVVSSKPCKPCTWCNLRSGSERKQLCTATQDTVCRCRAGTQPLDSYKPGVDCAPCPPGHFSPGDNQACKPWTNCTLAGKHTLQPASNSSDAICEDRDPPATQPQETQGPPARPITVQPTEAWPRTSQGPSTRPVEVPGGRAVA
Experimental: The next day, the plate was first washed 3 times with 300 μL PBST (Tween 20: 0.5‰), then blocked with 5% BSA/PBS at 100 μL/well for 2 h, and shaken at room temperature, followed by washing 3 times with 300 μL PBST. Gradient dilutions of the fusion protein samples were prepared in PBS, and then added to the 96-well plate at 100 μL/well; the plate was shaken for 1 h at room temperature, followed by washing 3 times with 300 μL PBST. A secondary antibody goat-anti-human IgG HRP solution was prepared and added to the 96-well plate at 100 μL/well, and the plate was shaken for 1 h at room temperature, followed by washing 4 times with 300 μL PBST. TMB was added at 100 μL/well to develop color for 20 min. 0.6N H₂SO₄ was added at 100 μL/well to stop the color development, and the OD values were determined at 450 nm.

human OX40 protein [7] = target: T4, human OX40 protein; assay: ELISA, plate coated with human OX40 protein, mouse-anti-human IgG HRP
Experimental: The next day, the plate was first washed 3 times with 300 μL PBST (Tween 20: 0.5‰), then blocked with 5% BSA/PBS at 100 μL/well for 2 h, and shaken at room temperature, followed by washing 3 times with 300 μL PB ST. Gradient dilutions of the fusion protein samples were prepared in PBS, and then added to the 96-well plate at 100 μL/well; the plate was shaken for 1 h at room temperature, followed by washing 3 times with 300 μL PBST. A mouse-anti-human IgG HRP (GenScript Biotech Corp., Art. No. A01854) solution was prepared and added into the 96-well plate at 100 μL/well, and the plate was shaken for 1 h at room temperature, followed by washing 4 times with 300 μL PBST. TMB was added at 100 μL/well to develop color for 20 min. 0.6N H₂SO₄ was added at 100 μL/well to stop the color development, and the OD (optical density) values were determined at 450 nm.

## pegylated interferon α2 (Pegberon, Xiamen Amoytop Biotech, Batch No. 201811JS19) (ligand)
[1]
  proliferation inhibitory activity on Daudi cells, IC50: 10600 nM

B1: MT01-L1 (antibody, V domains shown)
VH: EVQLQQSGPELVKPGASVKMSCKASGYTFTSYVMHWLKQKPGQGLEWIGYINPYNDGTKYNEKFKGKAKLTSDKSSSTAYMELSSLTSEDSAVYYCANYYGSKFAMDYWGQGTSVTVSS
VL: DIQMTQTTSSLSASLGDRVTISCRASQDISNYLSWYQRKPDGAVKLLIYYTSRLHSGVPSRFSGSGSGADYSLTISNLEQEDIATYFCQQGITLPWTFGGGTKLEIKR
[2]
  EC50: 660 ng/mL

B2: MT01-C1 (antibody, human IgG1, V domains shown)
VH: EVQLVQSGAEVKKPGESLKISCKASGYTFTSYVMHWLRQMPGKGLEWMGYINPYNDGTKYNEKFKGQVTISSDKSISTAYLQWSSLKASDTAMYYCANYYGSKFAMDYWGQGTMVTVSS
VL: DIQMTQSPSSVSASVGDRVTITCRASQDISNYLSWYQQKPGGAVKLLIYYTSRLHSGVPSRFSGSGSGTDYTLTISSLQPEDFATYFCQQGITLPWTFGQGTKVEIK
notes: also called OX40 antibody MT01-C1; OX40 mAb MT01-C1
[3]
  activate NFκB-luciferase reporter, EC50: 0.0452 ng/mL
[4]
  Activation activity of OX40 signaling pathway EC50: 0.325 nM
[5]
  Activation activity of OX40 signaling pathway EC50: 0.178 nM
Human OX40 protein [6]
  EC50: 298 ng/mL

B3: MT01-C1 as described in Example 11 (human IgG4 (S228P), κ) (antibody, V domains shown)
VH: EVQLVQSGAEVKKPGESLKISCKASGYTFTSYVMHWLRQMPGKGLEWMGYINPYNDGTKYNEKFKGQVTISSDKSISTAYLQWSSLKASDTAMYYCANYYGSKFAMDYWGQGTMVTVSS
VL: DIQMTQSPSSVSASVGDRVTITCRASQDISNYLSWYQQKPGGAVKLLIYYTSRLHSGVPSRFSGSGSGTDYTLTISSLQPEDFATYFCQQGITLPWTFGQGTKVEIK
notes: also called OX40 antibody MT01-C1; MT01-C1 mAb
Human OX40 protein [7]
  EC50: 1.21 nM

Source: patent US20210198375A1 (NANJING UMAB BIOPHARMA, published 2021)
